Measurements reported in paper PMC9464147.
“And” between values parts separate entries of the source, which are not always exact repeats. Identical values can stand only once. Blank lines part the entries; values can stand above or below the substance they belong to.

Columns and labels:
[1] = target: Milk CA VI (carbonic anhydrase VI purified from human milk) (human) (UniProt P23280); assay: SDS-PAGE without cross-linker; milk CA VI without DSS treatment (lane 7), boiled in sample buffer with SDS and reducing agent, SDS-PAGE, densitometry of bands
[2] = target: Milk CA VI (carbonic anhydrase VI purified from human milk) (human) (UniProt P23280); assay: cross-linking; DSS in 25- and 50-fold molar excess over protein (Table 3: 50-fold), milk CA VI 0.25-2 mg/ml in 100 mM Na2HPO4, 0.15 M NaCl pH 7.5, RT 30 min, quenched with Tris-HCl; reducing SDS-PAGE, densitometry of bands
[3] = target: Milk CA VI (carbonic anhydrase VI purified from human milk) (human) (UniProt P23280); assay: SEC; analytical SEC, Superdex 200 5/150 GL, 50 µg protein, 0.1 M Na-acetate buffer pH 5.0, 0.1 ml/min, +12 °C; MW from a standard curve, oligomeric state calculated with a monomer MW of 33.57 kDa
[4] = target: Milk CA VI (carbonic anhydrase VI purified from human milk) (human) (UniProt P23280); assay: SEC; analytical SEC, Superdex 200 5/150 GL, 50 µg protein, 50 mM Tris-HCl pH 7.5, 0.1 ml/min, +12 °C; MW from a standard curve, oligomeric state calculated with a monomer MW of 33.57 kDa
[5] = target: Salivary CA VI (carbonic anhydrase VI purified from human saliva) (human) (UniProt P23280); assay: SEC; analytical SEC, Superdex 200 5/150 GL, 50 µg protein, 0.1 M Na-acetate buffer pH 5.0, 0.1 ml/min, +12 °C; MW from a standard curve, oligomeric state calculated with a monomer MW of 33.57 kDa
[6] = target: Salivary CA VI (carbonic anhydrase VI purified from human saliva) (human) (UniProt P23280); assay: SEC; analytical SEC, Superdex 200 5/150 GL, 50 µg protein, 50 mM Tris-HCl pH 7.5, 0.1 ml/min, +12 °C; MW from a standard curve, oligomeric state calculated with a monomer MW of 33.57 kDa

% of the lane in the dimer band (no DSS) [1]: 9.67%
% of the lane in the dimer band (0.25 mg/ml) [2]: 16.1%
% of the lane in the dimer band (0.5 mg/ml) [2]: 9.88%
% of the lane in the dimer band (0.75 mg/ml) [2]: 19.4%
% of the lane in the dimer band (1 mg/ml) [2]: 17%
% of the lane in the dimer band (1.5 mg/ml) [2]: 16.9%
% of the lane in the dimer band (2 mg/ml) [2]: 19%
% of the lane in the hexamer band (0.25 mg/ml) [2]: 22.3%
% of the lane in the hexamer band (0.5 mg/ml) [2]: 12.8%
% of the lane in the hexamer band (0.75 mg/ml) [2]: 20.3%
% of the lane in the hexamer band (1 mg/ml) [2]: 23.5%
% of the lane in the hexamer band (1.5 mg/ml) [2]: 20.4%
% of the lane in the hexamer band (2 mg/ml) [2]: 20.8%
% of the lane in the tetra- or pentamer band (0.25 mg/ml) [2]: 14.1%
% of the lane in the tetra- or pentamer band (0.5 mg/ml) [2]: 10.2%
% of the lane in the tetra- or pentamer band (0.75 mg/ml) [2]: 15.2%
% of the lane in the tetra- or pentamer band (1 mg/ml) [2]: 13.2%
% of the lane in the tetra- or pentamer band (1.5 mg/ml) [2]: 12.7%
% of the lane in the tetra- or pentamer band (2 mg/ml) [2]: 12.1%
stoichiometry N [2]: 5
stoichiometry N ([2]; dimer band): 2
stoichiometry N ([2]; hexamer band): 6
stoichiometry N [3]: 7
stoichiometry N [4]: 15 and 6
Substance: Milk CA VI (carbonic anhydrase VI purified from human milk) (from UniProt P23280 18-308) (enzyme)

stoichiometry N [5]: 6
stoichiometry N [6]: 14
Substance: Salivary CA VI (carbonic anhydrase VI purified from human saliva) (from UniProt P23280 18-308) (enzyme)
